Reference: the supplement of paper PMC9170038

Tested on: MS2 coat protein
Assay: apparent KD of MS2 coat protein; designed switch direction (-1 OFF switch, 1 ON switch): 1; higher = weaker reporter binding
Summary of the method: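 Designed RNA switches were transcribed on Illumina chips by stalled E. coli RNA polymerase and titrated with SNAP-549-labelled MS2 coat protein from 0.7 or 1.5 nM, doubling to 3 µM. Step length ran from 0.8–1.5 h at the lowest concentration to 10–20 min at the highest. The apparent KD is the median over clusters for each design, from curve-fitted normalised cluster fluorescence.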

[1] = input ligand: microRNA oligo, concentration not stated
[2] = Eterna round: R95, input ligand: FMN 200 uM
[3] = Eterna round: R95, input ligand: microRNA oligo, concentration not stated
[4] = Eterna round: R95, input ligand: none

| Sequence | apparent KD of MS2 coat protein (input ligand: FMN 200 uM) [nM] | apparent KD of MS2 coat protein [1] [nM] | apparent KD of MS2 coat protein (input ligand: none) [nM] | apparent KD of MS2 coat protein [2] [nM] | apparent KD of MS2 coat protein [3] [nM] | apparent KD of MS2 coat protein [4] [nM] |
| --- | --- | --- | --- | --- | --- | --- |
| GUUAGGAAUCUAGCAAACAUGAGGAUCACCCAUGUUAGUGGGAAGGAUAUGGUACAGAAACUGUACCAGAAGGUCUUAUUAAUU [Omei SS(NG) 3 AV2] (Eterna round: R96, puzzle: Same State NG 3) | 58.3 | 39.1 | 55.7 |  |  |  |
| UAAAUAAUGUAAGGAUAUACAUGAGGAAUUCUCGUAGAAGGUACAUGACAUGAGGAUCACCCAUGUAUCGCUCAGUAGAGCGUA [Mat - Same State NG 1 - JL mod - D27] (Eterna round: R96, puzzle: Same State NG 1) |  | 48.3 |  |  |  |  |
| UAAGAACAUGAGGAUCACCCAUGUGGAAAGAACACAGGAUAUCAUGGAAGAACGAAACCAUGAGAAGGGUGACACG [Raatis] (puzzle: Same State 1) |  |  |  | 6270 | 225 | 24.3 |
| UACAAUCUAUCUGAGGAUAUCAUGAAAUAAACAUGAGGAUCACCCAUGUGCAGGAAAACUGCAUAUGAGAAGGCAGAUAGAUUGU [salish99_ss2_r3_059] (puzzle: Same State 2) |  |  |  | 41.1 | 662 | 1640 |
| UACCAACAAAUAAAACAAGCGUGCUCGUCACAUGAGGAUCACCCAUGUUUAAACGCUGUACCUACAUCCUCAGCGCC [Usatqulale] (puzzle: Sensor for hsa-mir-208a) |  |  |  | 38.9 | 31.3 | 52 |
| UACCUACCAGGAGGAUAUACAAACCCGAAAGGAGUAGAAGGCCUGAGUACUAACAUGAGGAUCACCCAUGUAGCGCCAGUUCGC [Eternabot solution 10] (Eterna round: R96, puzzle: Same State NG 1) | 18.2 | 15.1 | 17.4 |  |  |  |
| UACUGAGUCGUAGGAUAUGUAGGAUAUGGCGAGAGCUAAGCUUGGAAGUCACUUCAGCCAGAAGGACAGAAGGACGACUCUCUC [pwkr ssNG2 2FMN + F9.13] (Eterna round: R96, puzzle: Same State NG 2) | 40 | 273 | 51.1 |  |  |  |
| UAGAAACAUGAGGAUCACCCAUGUGUCAAAGACAUAGGAUAUCACAACUGGCGCCAGUCGUGAGAAGGGUGGUAAA [Usonesat] (puzzle: Same State 1) |  |  |  | 229 | 53.6 | 84.7 |
| UAGAGAGGAAGCGAGGAUAUCGUGGGAGGAACAUGAGGAUCACCCAUGUGUGAUGUUGAGAGGAACGAGAAGGCGCAGGAAAGUA [JR_SS2_Sub078] (puzzle: Same State 2) |  |  |  | 83.3 | 83.1 | 143 |
| UAGAGAGGAAGCGAGGAUAUCGUGUGAGGAACAUGAGGAUCACCCAUGUGUGAUGUUGAGAGAGACGAGAAGGCGCAGGAAAUUA [JR_SS2_Sub082] (puzzle: Same State 2) |  |  |  |  | 116 |  |
| UAGCACUGUCGAGAGGAUAUGCGGUGAUGGACAUGAGGAUCACCCAUGUUAGCGACAGCAUCACGGCAGAAGGCUCUACUGCUGC [Soteed Omei mod 35] (puzzle: Same State 2) |  |  |  | 11.7 | 15.6 | 13.7 |
| UAGGAACAUGAGGAUCACCCAUGUACCUCAUAUGGAGAAACACAGGAUAUGCUCAGCGAAAGAGAGCAGAAGGGUGAAGAGAGG [Default title] (Eterna round: R96, puzzle: Same State NG 3) | 23.6 | 27.6 | 31.6 |  |  |  |
| UAGGAUCAACGAGGAUAUAAUAGGUUCAAUUUUUUAUAUUGUUUACAUGAGGAUCACCCAUGUUAUUAGAAGGCGUAUGGGAUU [JR_SSNG2_Sub084] (Eterna round: R96, puzzle: Same State NG 2) |  | 39.9 |  |  |  |  |
| UAUCCAUAGAUAGGAUAUCAGUAUACAUGAGGAUCACCCAUGUUAUAUUUGGUUUUAAGUUAGUCUGAGAAGGAUCUUGAUGAA [SameState NG2 #3] (Eterna round: R96, puzzle: Same State NG 2) | 12.4 | 11.1 | 15.6 |  |  |  |
| UAUGAAUAGCAAGGAUAUUGAUAACAUGAGGAUCACCCAUGUAAUUGAUCGAGUUAGAUCAGUUACAAGAAGGUGCAAUUGAUU [JR_SSNG2_Sub035] (Eterna round: R96, puzzle: Same State NG 2) |  | 19.4 |  |  |  |  |
| UAUUAAGCUGUAGGAUAUCUAGGAUAUGGACGAGGAUCACCCGAGCAGCAUCAGCGCACCAGAGGAGAGAAGGACGCUUUGGAA [pwkr ssNG2 2F5 2FMN.3] (Eterna round: R96, puzzle: Same State NG 2) | 463 | 882 | 916 |  |  |  |
